Results as given in the RNAGym collection of RNA variant scans (doi:10.7554/elife.90254).

B1: OR4K15 (parent)
chain: GUUAACGGUCAUAGGCCAUGGAAACUAGGAGCACCAUUUCGCUGCCAGUGAAGAAAUGAACAAAGAAAAUCUGGGCCAGGCAGGCAUCAAAAGAAAUAGUCUUGCGCUCAACCAGAAAGUCUGUAAUCAUUUUAAGGGUA
B2: LINE1-full (parent)
chain: UACGUAGGUGGUUUUCCCCUGAUAGUGCUAAGGGGGCCUGGAAGUUUGGACUGGGCAGAGCUCAACACAGCGUGGCAAAGUGGCUGUGGCUAGACUGCCUCUCUGGAUUCCUCGUCACUCAGCAGGGCAUCUCUGAGAGAAAUGCC

Variants of: B1
Experiment: self-cleavage, relative activity (ratio to wild type); higher = more cleavage; in vitro, sequencing; the parent is a self-cleaving ribozyme

Variant	self-cleavage
GUUAACGGUCAUAGGCCAUGGAAACUAGGAGCACCAUUUCGCUGCCAGUGAAGAAAUGAACAAAGAAAAUCUGGGCCAGGCAGGCAUCAAAAGAAAUAGUCUUGCGCUCAUCCAGAAAGACUGUAAUCAUUUUAAGGGUA [A111U U120A]	0.08
GUUAACGGUCAUAGGCCAUGGAAACUAGGAGCGCCAUUUCGCUGCCAGUGAAGAAAUGAACAAAGAAAAUCUGGGCCAGGCAGGCAUCAAAAGAAAUAGUCUUGCGCUCAACCAGAAAGUCUGUAAACAUUUUAAGGGUA [A33G U127A]	1.19
GUUAACGGUCAUAGGCCAUGGAAACUAGGAGCAGCAUUUCGCUGCCAGUGAAGAAAUGAACAAAGAGAAUCUGGGCCAGGCAGGCAUCAAAAGAAAUAGUCUUGCGCUCAACCAGAAAGUCUGUAAUCAUUUUAAGGGUA [C34G A67G]	1.12
GUUAACGGUCAUAGGCCAUGGAAACUAGGAGCACUAUUUCGCUGCCAGUGAAGAAAUGAACAAGGAAAAUCUGGGCCAGGCAGGCAUCAAAAGAAAUAGUCUUGCGCUCAACCAGAAAGUCUGUAAUCAUUUUAAGGGUA [C35U A64G]	1
GUUCACGGUCAUAGGCCAUGGAAUCUAGGAGCACCAUUUCGCUGCCAGUGAAGAAAUGAACAAAGAAAAUCUGGGCCAGGCAGGCAUCAAAAGAAAUAGUCUUGCGCUCAACCAGAAAGUCUGUAAUCAUUUUAAGGGUA [A4C A24U]	0.5
GCUAACGGUCAUAGGCCAUGGAAACUAGGAGCACCAUUUCGCUGCCAGUGAAGAAAUGAACAAAGAAAAUCUGGGCCAGGCAGGCAUCAAAAGAAAUAGUCUUGCGCUCAACCAGAAAGUCUGUAUUCAUUUUAAGGGUA [U2C A126U]	0.77
GUUAACGGUCAUAGGCCAUGGAAACUAGGGGCACCAUUUCGCUGCCAGUGAAGAAAUGAACAAAGAAAAUCUGGGCCAGGCAGGCAUCAAAAGAAAUAGUCAUGCGCUCAACCAGAAAGUCUGUAAUCAUUUUAAGGGUA [A30G U102A]	0.78
GUUAACGGUCAUAGGCCAUGGAAACUAGGAGCACCAUUACGCUGCCAGUGAAGAAAUGAACAAAGAAAAUCUGGGCCAGGCAGGCAUCAAAAGAAAUAGUCUUGCGCUCAACCAGAAAGUCUGUUAUCAUUUUAAGGGUA [U39A A125U]	2.5
GUUAACGGUCAUAGGCCAUGGAAACUAGGAGCUCCAUUUCGCUGCCAGUGAAGAAAUGAACAAAGAAAAUCUGGGCCAGGCAGGCAUCGAAAGAAAUAGUCUUGCGCUCAACCAGAAAGUCUGUAAUCAUUUUAAGGGUA [A33U A89G]	1.46
GUUAACGGUCAUAGGCCAUGGAAACUAGGAGCACCAUUUCGCUGCCAGUGAAGAAAUGAACAAAGAAAAUCUGGCCCAGGCAGGCAUCAAAAGAAAUAGUCUUGCGCUCAGCCAGAAAGUCUGUAAUCAUUUUAAGGGUA [G75C A111G]	0
GUUAACGGUCAUAGGCCAUGGAAACUAGGGGCACCAUUUCGCUGCCAGUGAAGAAAUGAACAAAGAAAAUCUGGGCCAGGCAGGCAUCAAAAGAAAUAGUCUUGCGCCCAACCAGAAAGUCUGUAAUCAUUUUAAGGGUA [A30G U108C]	0.02
GUCAGCGGUCAUAGGCCAUGGAAACUAGGAGCACCAUUUCGCUGCCAGUGAAGAAAUGAACAAAGAAAAUCUGGGCCAGGCAGGCAUCAAAAGAAAUAGUCUUGCGCUCAACCAGAAAGUCUGUAAUCAUUUUAAGGGUA [U3C A5G]	1
GUUAACGGUCAUAGGCCAUGGAAACUAGGAGCACCAUUUCGCUGCCAGUGAAGAAAUGAACAAAGAAAAUCAGGGCCAGGCAGGCAUCAAAAGAAGUAGUCUUGCGCUCAACCAGAAAGUCUGUAAUCAUUUUAAGGGUA [U72A A96G]	0.2
GUUAACGGUCAUAGGCCAUGGAAACUAGGAGCACCAUUUCGCUGCCAGUGAAGAAAUGAACAAAGAAAAUCUGGGCCAGGCAGGCAUCAAAAGAAAUAGUCUUGCGCACAACCAGAAAGUCUGUAAUCGUUUUAAGGGUA [U108A A129G]	0

Variants of: B2
Experiment: as above

Variant	self-cleavage
UACGUAGGUGGUUUUCCCCUGAUAGUGCUAAGGGGGCCUGGAAGUUUGGACUUGGCAGAGCUCACCACAGCGUGGCAAAGUGGCUGUGGCUAGACUGCCUCUCUGGAUUCCUCGUCACUCAGCAGGGCAUCUCUGAGAGAAAUGCC [G53U A65C]	0.07
UACGCAGGUGGUUUUCCCCUGAUAGUGCUAAGGGGGCCUGGAAGUUUGGACUGGGCAGAGCUCAACACAGCGAGGCAAAGUGGCUGUGGCUAGACUGCCUCUCUGGAUUCCUCGUCACUCAGCAGGGCAUCUCUGAGAGAAAUGCC [U5C U73A]	1.74
UACGUAGGUGGUUUUCCCCUGAUAGUGCUAAAGGGGCCUGGAAGUUUGGACUGGGCAGAGCUCAACACAGCGUGGCAAAGUGGCUGUGGCUAGACUGCCUCUCUGGAUUCCUCGCCACUCAGCAGGGCAUCUCUGAGAGAAAUGCC [G32A U115C]	0.95
UACGUAGGAGGUUUUCCCCUGAUAGUGCUAAGGGGGCCUGGAAGUUUGGACUGGGCAGAGCUCAACACAGCGUGGCAAAGUGGCUGUGGCUAGACUGCCUCUCUGGAUUCCUCGUCACUCAGCAGGGCAUCUCUGAGGGAAAUGCC [U9A A138G]	0.87
UACGUAGGUGGUUUUCCCCUGAUAGUGCUAAGGGGGCCUGGAAGUUUGGACUGGGGAGAGCUCAACGCAGCGUGGCAAAGUGGCUGUGGCUAGACUGCCUCUCUGGAUUCCUCGUCACUCAGCAGGGCAUCUCUGAGAGAAAUGCC [C56G A67G]	0
UACGUAGGUGGUUUUCCCCUGACAGUGCUAAGGGGGCCUGGAAGUUUGGACUGGGCAGAGCUCAACACAGCGUGGCAAAGUGGCUGUGGCUAGACUGCCUCUCUGGAUUCCUCGUCACUCAGCUGGGCAUCUCUGAGAGAAAUGCC [U23C A124U]	1.22
UACGUAGGUGGUUUUCCCCUGAUAGUGCUAAGGGGGCCUGGAAGUUUGGACUGGGCAGAGCUUAACACAGCGUGGCAAAGUGGCUGUGGCUAGGCUGCCUCUCUGGAUUCCUCGUCACUCAGCAGGGCAUCUCUGAGAGAAAUGCC [C63U A94G]	0.06
UACGUAGGUGGUUUUCCCCUGAUAGUGCUAAGGGGGCCUGGAAGUUUGGACUGGGCGGAGCUCAACACAGCGUGGCAAAGUGGCUGGGGCUAGACUGCCUCUCUGGAUUCCUCGUCACUCAGCAGGGCAUCUCUGAGAGAAAUGCC [A57G U87G]	0.14
UACGUAGGUGGUUUUCCCCUGAUAGUGCUAAGGGGGCAUGGAAGUUUGGACUGGGCAGAGCUCAACACAGCGUGGCAAAGUGGCUGUGGCUAGACUGCCUCUCUGGAUUCCUCGUCACUCAGCAGGGCAUCUCUGAGAGAAGUGCC [C38A A142G]	0.64
UACGUAGGUGGUUUUCCCCUGAUAGUGCUAAGGGGGCCUGGAAGUUUGGCCUGGGCAGAGCUCAACACAGCGUGGCAAAGUGGCUGUGGCUAGACUGCCUCUCUGGAUUCCUCGUCACUCACCAGGGCAUCUCUGAGAGAAAUGCC [A50C G122C]	1.1
UACGUAGGUGGUUUUCCCCUGAUAGUGCUAAGGGGGCCUGGAAGUUUGGACUGGGCAGAGCUCAACACAGCGCGGCAAAGUGGCUGUGGCUAGACUGCCUCUCUGGAUUCCUCGCCACUCAGCAGGGCAUCUCUGAGAGAAAUGCC [U73C U115C]	1.63
UACGUAGGUGGUUUUCCCCUGAUAGUGCUAAGGGGGCCUGGAAGUUUGGACUGGGCAGAGCUCAACACAGCAUGGCAAAGUGGCUGUGGCUAGACUGCCUCUCUGGAUUCCUCGUCACUCAGCAGGGCAUCUCUGAGAGGAAUGCC [G72A A140G]	1.16
UACGUAGGUGGUCUUCCCCUGAUAGUGCUAAGGGGGCCUGGAAGUUUGGACUGGGCAGAGCACAACACAGCGUGGCAAAGUGGCUGUGGCUAGACUGCCUCUCUGGAUUCCUCGUCACUCAGCAGGGCAUCUCUGAGAGAAAUGCC [U13C U62A]	0.12
UACGUAGGUGGUUUUCCCCUAAUAGUGCUAAGGGGGCAUGGAAGUUUGGACUGGGCAGAGCUCAACACAGCGUGGCAAAGUGGCUGUGGCUAGACUGCCUCUCUGGAUUCCUCGUCACUCAGCAGGGCAUCUCUGAGAGAAAUGCC [G21A C38A]	1.07
UACGUAGGUGGUUUUCCCUUGAUAGUGCUAAGGGGGCCUGGAAGUUUGGACUGGGCAGAGCUCAACACAGCGUGGCAAAGUGGCUGUGGCUAGACUGCCUCUCUGGAUUCCACGUCACUCAGCAGGGCAUCUCUGAGAGAAAUGCC [C19U U112A]	1.06
UACGUAGGUGGUUUUCCCCUGAUAGUGCUAAGGGGGCCCGGAGGUUUGGACUGGGCAGAGCUCAACACAGCGUGGCAAAGUGGCUGUGGCUAGACUGCCUCUCUGGAUUCCUCGUCACUCAGCAGGGCAUCUCUGAGAGAAAUGCC [U39C A43G]	1.38
UACGUAGGUGGUUUUCCCCUGAUGGUGCUAAGGGGGCCUGGAAGUUUGGACUGGGCAGAGCUCAACACAGCGUGGCAAAGUGGCUGUGGCUAGACUACCUCUCUGGAUUCCUCGUCACUCAGCAGGGCAUCUCUGAGAGAAAUGCC [A24G G97A]	0.17
UACGUAGGUGGUUUUCCCCUGAAAGUGCUAAGGGGGCCUGGAAGUUAGGACUGGGCAGAGCUCAACACAGCGUGGCAAAGUGGCUGUGGCUAGACUGCCUCUCUGGAUUCCUCGUCACUCAGCAGGGCAUCUCUGAGAGAAAUGCC [U23A U47A]	1.91
UACGUAGGUGGUUUUCCCCUGAUAGUGCUAAGGGGGCCUGGAAGUUAGGACUGGGCAGAGCUCAACACAGCGUGGCAAAGUGGCGGUGGCUAGACUGCCUCUCUGGAUUCCUCGUCACUCAGCAGGGCAUCUCUGAGAGAAAUGCC [U47A U85G]	0.17
UACGUAGGUGGUUUUCCCAUGAUAGUGCUAAGGGGGCCUGGAAGUUUGGACUGGGCAGAGCUCAACACAGCGUGGCAAAGUGGCUGUGGCUAGACUGCCUCUCUGGGUUCCUCGUCACUCAGCAGGGCAUCUCUGAGAGAAAUGCC [C19A A107G]	1
UACGUAGGCGGUUUUCCCCUGAUAGUGCUAAGGGGGCCUGGAAGUUUGGACUGGGCAGAGCUCAACACAGCGUGGCAAAGUGGCUGUGGCUAGACUGCCUCUCUGGAUUCCUCGUCACUCAGCUGGGCAUCUCUGAGAGAAAUGCC [U9C A124U]	1.26
UACGUAGGUGGUUUUCCCCUGAUAGUGCUAAGGGGGCCUGGAAGUUUGGACUGGGCAGAGCUCAACACAGCGCGGCAAAGUGGCUGUGGCUAGACUGCCACUCUGGAUUCCUCGUCACUCAGCAGGGCAUCUCUGAGAGAAAUGCC [U73C U100A]	1.81
UACGUAGGUGGUUUUCCCCUGAUAGUACUAAGGGGGCCUGGAAGUUUGGACUGGGCAGAGCUCAACACAGCGUGGCAAAGUGGCUGUGGCUAGACUGCCUCUCUGGACUCCUCGUCACUCAGCAGGGCAUCUCUGAGAGAAAUGCC [G27A U108C]	1.15
UACGUAGGUGGUUUUCCCCUGAUAGUGCUAAGGGGGCCUGGAAGUUAGGACUGGGCGGAGCUCAACACAGCGUGGCAAAGUGGCUGUGGCUAGACUGCCUCUCUGGAUUCCUCGUCACUCAGCAGGGCAUCUCUGAGAGAAAUGCC [U47A A57G]	0.54
UACGUAGGUGGUUUUCCCCUGAUAGUGCUAAGGGGGCCUGGAAGUUUGGACUGGGCAGAGCUCAACACAGCGAGGCAAAGUGGCUGCGGCUAGACUGCCUCUCUGGAUUCCUCGUCACUCAGCAGGGCAUCUCUGAGAGAAAUGCC [U73A U87C]	0.06
UACAUAGGUGGUUUUCCCCUGAUAGUGCUAAGGGGGCCUGGAAGUUUGGACUGGGCAGAGCUCAACGCAGCGUGGCAAAGUGGCUGUGGCUAGACUGCCUCUCUGGAUUCCUCGUCACUCAGCAGGGCAUCUCUGAGAGAAAUGCC [G4A A67G]	0.62
